# Data from the nanobody polyreactivity screen of Harvey et al. (2022).
# Experiment: yeast display, Sf9 membrane polyspecificity reagent, FACS + sequencing; frameworks hold sequencing errors
# How it was run: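 Galactose induction of a Saccharomyces cerevisiae BJ5465 synthetic nanobody display library ran 36–48 hours. The cells were then stained for 1 hour at 4 °C with 10% biotinylated, detergent-solubilized Sf9 membrane reagent, pulled down on streptavidin microbeads and FACS-sorted into low and high (top ~1%) gates on expression and reagent-binding fluorescence. Labels for polyreactivity follow the gate of origin.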
row,Sequence,polyreactivity (PSR sort gate)
1,QVQHVESGGGLVQAGGSLRLSCAASGFIFRWYAMGWYRQAPGKERELVAAITTSGGITYYADSVKGRFTISRDNAKNTVYLQMNSLKPEDTAVYYCNRSPWYGPWHPNSFGSGDYWGQGTQVTVSS,low polyreactivity
2,QVQHVESGGGLVQAGGSLRLSCAASGFIFRYYTMGLYRQAPGKERELVATISNSGRTYYADSVKGRFTISRDNAKNTVYLQMNSLKPEDTAVYYCNALRASTTALWGGYWGQGTQVTVSS,high polyreactivity
3,QVQHVESGGGLVQAGGSLRLSCAASGFIFTHYTMGWSRQAPGKESELVAVISSAGSTYYADSVKGRFTISRDNAKNTVYLQMNSLKPEDTAVYYCNKVVRQVHGRGLDYWGQGTQVTVSS,high polyreactivity
4,QVQHVESGGGLVQAGGSLRLSCAASGFIFTSYAMGWYRQAPGKERELVAVISASDGSTYYADSVKGRFTISRDNAKNTVYLQMNILKPEDTAVYYCNATEYLGGGGIVHVEFGYWGQGTQVTVSS,low polyreactivity
5,QVQHVESGGGLVQAGGSLRLSCAASGFTFGVNAMGWYRQAPGKERELVAVITSGGNTYYADSVKGRYTISRDNAKNTVYLQMNSLKPEDTAVYYCAADLSYTSYATRYQGDYWGQGTQVTVSS,low polyreactivity
6,QVQHVESGGGLVQAGGSLRLSCAASGFTIYYYAMGWYRQAPGKERELVAAISTRDGNTYYADSVKGRFTMSRDNAKNTVYLQMNSLKPEDTAVDYCAADYFRYYPYDYWGQGTQVTVSS,low polyreactivity
7,QVQHVESGGGLVQAGGSLRLSCAASGGIFPTYVMGWYRQAPGKERELVAAIDRNGTSTTYADSVMGRFTISRDNAKNTVYLQMNSLKPEDTAVYYCAAGYNDQTTAYDYWGQGTQVTVSS,low polyreactivity
8,QVQHVESGGGLVQAGGSLRLSCAASGIIFLRYGMGWYREAPGKERELVPAISSGGSTNYADSVKGRFTISRDNAKNTVYLQLNSLKPEDTAVYYCAALYGRGRPQDSTFLFDYWGPGTQVTVSS,low polyreactivity
9,QVQHVESGGGLVQAGGSLRLSCAASGIILRSNAMGWYRQAPGKERELVAAINYSGGRTYYADSVKGRFTISRDTAKNTVYLQMNSLKPEDTAVYYCAAGGYPYGLSRVKLYYWGQGTQVTVSS,high polyreactivity
10,QVQHVESGGGLVQAGGSLRLSCAASGITFGRNTKGWYRQAPGKERELVAAIDSGGNTYADSVKGRFTISRDNAKNTVYLQMNSLKPEDTAVYYCAVDGGEFSSYGYWGQGTQVTVSS,low polyreactivity
11,QVQHVESGGGLVQAGGSLRLSCAASGITFVDNAMGWYRQAPGKEREWVAVISSSGGSTYYADSVKGRFTISRDNAKNSVYLQMNSLKPEDTAVYYCAARNRFYRRPYDYWGQGTQVTVSS,high polyreactivity
12,QVQHVESGGGLVQAGGSLRLSCAASGLIYAYYAMGWYRHAPGKERELVAAISRSGVSTYYADSVKGRFTISRDNAKNTVYLQMNSVKPEDTAVYYCAARWRSGFTSGDYWGQGTQVTVSS,low polyreactivity
13,QVQHVESGGGLVQAGGSLRLSCAASGLTFPYYVMGWYRQAPGKERELVAAIDDGGGSTYYADSVKGRFTISRDNAKNTVYLQMNSLKPVDTAVYYCAAQVDYLAHYGYWGQGTQVTVSS,low polyreactivity
14,QVQHVESGGGLVQAGGSLRLSCAASGLTFSSYAMGWYRQAPGKERELVAAISLSGGRTYYADSVKGRFTISRDNAKNTVYLQMNSLKPEDTAVYYCAADPYANWCPYPAWYYGAYNYWGQGTQVTVSS,high polyreactivity
15,QVQHVESGGGLVQAGGSLRLSCAASGLTLYGYTMGWYRQAPGKERELVPTITTGGDSTYYADSVKGRFTISRDNAKNTVYLQMTSLKPEDTAVYYCSAFSYGWDYSYDYWGQGTQVTVSS,low polyreactivity
16,QVQHVESGGGLVQAGGSLRLSCAASGRIFAFYAMGWYRQAPGKEREFVAAITWSGTNTYYADSVKGRFTISRDNAKNTVYLQMNSLKPEDTAVYYCNARQYYKYGYWGQGTQVTVSS,high polyreactivity
17,QVQHVESGGGLVQAGGSLRLSCAASGRIFAVNTMGWYRPAPVKERELVAAITSTGRTYYADSVKGRFTISRDNAKNTVYLQMNSLKPEDSAVYYCAADFRYPYAHLPYGYWGQGTQVTVSS,high polyreactivity
18,QVQHVESGGGLVQAGGSLRLSCAASGRIFEIYAMGWYRPAPGKERYLVAAISWRGVSTYYADSVKGRFTISRDYAKNTVYLQMNSLKPEDTAVFYCNNDVDYFWYVEYDYWGQGTQVTVSS,low polyreactivity
19,QVQHVESGGGLVQAGGSLRLSCAASGRIFGWYAMGWYRQAPGKERELVAVISWRGRTYYADSVKGRFTISRDNAKNTVYLQMNSLKPEDTAVYYCNARSRSAYDYWGQGTQVTVSS,high polyreactivity
20,QVQHVESGGGLVQAGGSLRLSCAASGRIFHYYAMGWYRQAPGKERELVAAINKSGGRTYYADSVKGRFTISRDNAKNTVYLQMNSLKPEDTAVYYCNKRSVPGTYYPTPVRYKYDYWGQGTQVTVSS,high polyreactivity
21,QVQHVESGGGLVQAGGSLRLSCAASGRIFKYNAMGWYRPAPGKERELVAAISYSGGSTYYADSVKGRFTISRDNAKNTVYLQMNSVKPEDTEVYYCAKATTTREPKYGYWGQGTQVTVSS,high polyreactivity

row,Sequence,polyreactivity (PSR sort gate)
1,QVQHVESGGGLVQAGGSLRLSCAASGRIFLHNAMGWYRQAPGKERELVAAITGGGSTYYADSVKGRFTISRDNAKNTVYLQMNSLKPEDTAVYYCATLGSLRYYWPGYDYWGQGTQVTVSS,low polyreactivity
2,QVQHVESGGGLVQAGGSLRLSCAASGRIFSINVMGWYRHAPGKERELVAAISKLGGSTYYADSVKGRFTISRDNAKNTVYLQMNSLKPEDTAVYYCAARRHYTYGNGPSRGGQMDYWGQGTQVTVSS,high polyreactivity
3,QVQHVESGGGLVQAGGSLRLSCAASGRIFVPYAKGWYRQPPGKERELVADISLRGGTTYYADSVKGRFTISRDNAKNTVYLQMNSLKPEDTAVYYCAARGYVSVWRPYHWFVAGDYWGQGTQVTVSS,high polyreactivity
4,QVQHVESGGGLVQAGGSLRLSCAASGRIFWGYEMGWYRQAAGKEREFVAALSSGGGRTYYADSVKGRFTISRDNAKNTVYLQMNSLKPDDSGVYYSNAELNWYYYIHLDYWGQGTQVTVSW,low polyreactivity
5,QVQHVESGGGLVQAGGSLRLSCAASGRIFYCYAMGWYRQAPGKERELVAAISWSGGSTYYADSVKGRFTISRDNAKNTVYLQMNSLKPEDTAVYYCARRYRGGYKYDYWGQGTQVTVSS,high polyreactivity
6,QVQHVESGGGLVQAGGSLRLSCAASGRIINTYAMGWYRPAPGKERELVAAISWSGGSTYYADSVKGRFTISRDNAKNTVDLQMNSLKPEDTAVYYCNAAYYGYENLSKRGYWGQGTQVTVSS,high polyreactivity
7,QVQHVESGGGLVQAGGSLRLSCAASGRIIWQNAMGWDRQAPGKERELVAAISSRGGTTYYADSVKGRFTISRDNAKNTVYLQINSLKPEDTAVYYCAKEVWRHYLNLYDYWGQGTQVTVSS,low polyreactivity
8,QVQHVESGGGLVQAGGSLRLSCAASGRTFFSYAMGLYRHAPGKERELVAAITYSGGRTYYADSVKGRFTISRDNAKNTVYLQMNSLKPEDTAVYYCAATHYREKIDYWGQGTQVTVSS,low polyreactivity
9,QVQHVESGGGLVQAGGSLRLSCAASGRTFISNAMGWYRQAPGKERELVATINSGGSTNYADSVKGRFTISRDNAKNTVYLQMNSLKPEDTAVYYCARRVRYKHYDYWGQGTQLTVSS,high polyreactivity
10,QVQHVESGGGLVQAGGSLRLSCAASGRTFNYYAMGWYRQAPGKERELVAAISSSGGRTYYADSVKGRFTISRDNAKNTVYLQMNSLKPEDTAVYYCAADSFYYRPEYDYWGQGTQVTVSS,low polyreactivity
11,QVQHVESGGGLVQAGGSLRLSCAASGRTFRGYAMGWYRQAPGKERELVASISASGVRTYYADSVKGRFTISRDNAKNTVYLQMNSLKPEDTAVYYCNARHGGWYSVYYYWGQGTQVTVSS,high polyreactivity
12,QVQHVESGGGLVQAGGSLRLSCAASGRTFRNYAMGWYRQAPGKERELVAAISSGGSTNYADSVKGRFTISRDNAKNTVYLQMNSLKPEDTAVYYCAARQRAYYGPGFDYWGQGTQVTVSS,low polyreactivity
13,QVQHVESGGGLVQAGGSLRLSCAASGRTFRWYAMGWYRHAPGKERELVAGISRGGGSTTYADSVKGRFTISRDYAKNTVYLQMNSLKPEDTAVYYCAAYWGRTRYYGYDYYYWGQGTQLTVSS,high polyreactivity
14,QVQHVESGGGLVQAGGSLRLSCAASGRTFVNNAMGWYRQQPGKERELVAAITGSGGSTYYADSVKGRFTISRDNAKNTVYLLMNSLKPEDTAVYYCAKRLVGSRYLFDYWGQGTQVTVSS,low polyreactivity
15,QVQHVESGGGLVQAGGSLRLSCAASGRTFVTNAKGWYRQAPGKERELVAAISSSGGSTYYADSVKGRFTISRDNAKNTVYLQMNSLKPEDTAVYYCATDRYVTPRLRFDYWGQGTQVTVSS,low polyreactivity
16,QVQHVESGGGLVQAGGSLRLSCAASGRTLSFYAMGWYRQAPGKERELVAAINYSGGRTSYADSVKGRFTISRDNAKNTVYLQMNSLKPEDTAVYYCAKGVYPWGVYYWGQGTQVTVSS,low polyreactivity
17,QVQHVESGGGLVQAGGSLRLSCAASGSIFGVNVMGWYRQAPGKERELVAAISSGGGSTYYAESVKGRFTISRDNAKNTVYLQMNSLKPEDTAVYYCAARGQKYGSTYRMDYWGQGTQVTVSS,low polyreactivity
18,QVQHVESGGGLVQAGGSLRLSCAASGSIFLLYAMGCYSQAPGKERELVAAISTRDGSTYYADSVKGRFTISRDNAKNTVYLQMNSLKPEDTAVYYCATLYSYNYWGQGTQVTVSS,high polyreactivity
19,QVQHVESGGGLVQAGGSLRLSCAASGSIFTTYAMGWYRQAPGKERELVAAISSGGGTNYADSVKGRFTISRDNAKHTVYLQMNSLKPEDTAVYYCNKRYYRLQLHNAYGATPRRNYWGQGTQVTVSS,low polyreactivity
20,QVQHVESGGGLVQAGGSLRLSCAASGSIFYYYAMGWYRQAPGKERELVATISSSSGSTYADSVKGRFTISRDNAKNTVYLQMNSLKPEDTAVYYCAKDYWGQGTKVTVSS,low polyreactivity
